Experimental data taken from paper PMC5339848.

Key:
[1] = target: AP1M1 (mu subunit of the AP1 complex) (UniProt Q9BXS5); experiment: competitive binding with synthetic peptides, in vitro; conditions: reference: unphosphorylated peptide; sites Y8
[2] = target: AP2M1 (mu subunit of the AP2 complex) (UniProt Q96CW1); experiment: as above; conditions: reference: unphosphorylated peptide; sites Y8

binding against the reference [1]: stronger
binding against the reference [2]: stronger
Substance: mATG9 1-18 (from UniProt Q7Z3C6) pY8 peptide
